Like-named read-outs stand apart in the source and are kept apart here.
T1: cynomolgus IL-15+IL-15Ralpha complex (Macaca fascicularis)
T1 chain 1: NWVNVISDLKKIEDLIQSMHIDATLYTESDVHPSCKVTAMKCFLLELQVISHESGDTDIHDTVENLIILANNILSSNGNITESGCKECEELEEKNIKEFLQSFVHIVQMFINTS
T1 chain 2: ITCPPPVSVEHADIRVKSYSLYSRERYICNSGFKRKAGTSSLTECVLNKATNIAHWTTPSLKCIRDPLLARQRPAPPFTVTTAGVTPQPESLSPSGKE

B1: R1A3 (antibody, V domains shown)
VH: EVQLVQSGAEVKKPGESLKISCKVSGYFFTTYWIGWVRQMPGKGLEYMGIIYPGDSDTRYSPSFQGQVTISADKSISTAYLQWSSLKASDTAMYYCARGGHWNAFDFWGQGTLVTVSS
VL: EIVLTQSPGTLSLSPGERATLSCRASQSVSSSYLAWYQQKPGQAPRLLIYGASRRATGIPDRFSGSGSGTDFTLTISRLEPEDFAVYYCQQFDASQTFGQGTKLEIS
B2: CALY-002 (antibody, V domains shown)
VH: EVQLVESGGGLVQPGGSLRLSCAASEFTFSNYAMSWVRQAPGKGLEWVATISRGGDYTYYPDSVKGRFTISRDNSKNTLYLQMNSLRAEDTAVYYCARRVSMITGGWAMDYWGQGTLVTVSS
VL: DVVMTQSPLSLPVTLGQPASISCRSSQSIVDITGNTYLEWYQQRPGQSPRLLIYKVFNRFSGVPDRFSGSGSGTDFTLKISRVEAEDVGVYYCFQDSFVPYTFGQGTKLEIK

Tests used:
Assay in all cases: SPR
[1] = target: human IL-15+IL-15Ralpha complex (human)
[2] = target: human IL-15+IL-15Ralpha complex (human); remark: listed apart in the source
[3] = target: T1, cynomolgus IL-15+IL-15Ralpha complex
[4] = target: human IL-15+IL-15Ralpha complex (human); remark: listed apart in the source
[5] = target: human IL-15+IL-15Ralpha complex (human); remark: listed apart in the source

Kd [1]	Kd [2]	Kd [3]	Kd [4]	Kd [5]	Binder
0.353 nM	–	–	–	–	B1
–	0.201 nM	0.148 nM	0.337 nM	0.239 nM	B2

— patent US20260285966 (published 2026)
